According to US20250313621A1 (NXERA PHARMA UK, published 2025):
Substitutions are numbered along the chain they refer to. Values belong to the binder of their own block, whether it stands above or below them.

Key:
[1] = target: T1, Wildtype human PAR2 expressed on cells (human, UniProt P55085 37-397); assay: KinExA, whole cell equilibrium, HEK-293F cells expressing WT full-length human PAR2 titrated against two fixed IgG concentrations, apparent KD; sheet also prints Expression Level: 7.951e+006 receptors/cell, Error: 2.06 %
T1 construct: also called huPAR2; WT FL-huPAR2
T1 sequence: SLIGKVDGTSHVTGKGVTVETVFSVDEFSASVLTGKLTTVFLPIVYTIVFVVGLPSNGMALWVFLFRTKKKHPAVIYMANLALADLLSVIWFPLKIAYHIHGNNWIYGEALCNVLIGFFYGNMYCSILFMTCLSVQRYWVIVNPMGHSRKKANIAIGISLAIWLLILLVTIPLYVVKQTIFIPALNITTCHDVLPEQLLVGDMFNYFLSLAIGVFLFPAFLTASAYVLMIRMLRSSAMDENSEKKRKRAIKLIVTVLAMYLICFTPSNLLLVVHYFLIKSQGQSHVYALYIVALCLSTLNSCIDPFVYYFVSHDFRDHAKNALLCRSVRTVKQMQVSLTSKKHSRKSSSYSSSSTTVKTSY
Method: (§1) For the determination of apparent KD using “native” PAR2 (i.e. PAR2 expressed at the cell surface) KinExA methodology was applied to evaluate a subset of lead clones, namely Y022870 and Y02283. […] The cells were titrated in incubation buffer (D-PBS from Gibco, 0.5% (w/v) BSA, 0.02% (v/v) Sodium azide). The experiment consisted of two titrations with a low and a high fixed IgG concentration. In both titration experiments (stoichiometry- and affinity-controlled conditions), the maximum amount of cells had to contain a high enough effective ligand concentration to completely saturate the IgG. The mixtures of IgG and cells were incubated at room temperature overnight under very gentle agitation to allow for equilibrium formation. Subsequently, the formed cell-antibody complex was removed by centrifugation. The free IgG amounts of the supernatants were determined with goat anti-human F(ab′)₂ fragment specific antibody (Jackson ImmunoResearch, #109-005-097) coated on PMMA (Polymethylmethacrylat) beads and fluorescence detection with anti-human F(ab′)₂ fragment specific Alexa Fluor 647 antibody (Jackson ImmunoResearch, #109-605-097). […] The recorded titration curves were analyzed with KinExA Pro software 4.1.11 using the n-curve analyse tool by applying the “Equilibrium, whole cell” model. […] Values are in line with SPR determined using PAR2 nanodiscs (210 and 140 pM, respectively).

[2] = target: T1, Wildtype human PAR2 expressed on cells; assay: KinExA, apparent KD; IgG titrated with BacMam infected HEK-293F cells expressing wild-type full-length human PAR2
Method: as §1

[3] = target: T2, Cynomolgus PAR2 on BacMam-infected HEK293 cells (cynomolgus); assay: flow cytometry on HEK293F-cynoPAR2 (3.0E+06 cells/mL), S/BG
T2 construct: whole, on cells; also called cyno PAR-2; Cyno PAR2

[4] = target: T1, Wildtype human PAR2 expressed on cells; assay: KinExA, whole cell equilibrium, HEK-293F cells expressing WT full-length human PAR2 titrated against two fixed IgG concentrations, apparent KD; sheet also prints Expression Level: 2.518e+006 receptors/cell, Error: 2.56 %
Method: as §1

Kd [1]: 0.373 nM
Kd [2]: ~0.37 nM
B1: Y022870 (antibody, human IgG1, lambda, V domains shown)
VH: EVQLLESGGGLVQPGGSLRLSCAASGFSFSRYAITWVRQAPGKGLEWVSTISALGLETYYAESVRGRFTISRDNSKNTLYLQMNSLRAEDTAVYYCARGFHYTHSGKRYYYPFDIWGQGTLVTVSS
VL: QSALTQPASVSGSPGQSITISCTGTSSDVGSYNLVSWYQQHPGKAPKLMIYEGSKRPSGVSNRFSGSKSGNTASLTISGLQAEDEADYYCSQYATFIAFAVFGGGTKLTVLG
notes: also called Y22870

EC50 (read off the curve) [3]: ~3 nM
B2: Y022877 (antibody, human IgG1, lambda, V domains shown)
VH: B1 VH with S28T, I34M, A53G, L56Q, T58A, E62G, R65K
VL: B1 VL
notes: also called Y22877

EC50 (read off the curve) [3]: ~2 nM
Kd [4]: 0.259 nM
Kd [2]: ~0.26 nM
B3: Y022883 (antibody, human IgG1, lambda, V domains shown)
VH: B1 VH with S30T, T35S, T50V, A53G, L54H, L56S, T58A, Y59N, R65K
VL: B1 VL
notes: also called Y22883; Y02283
